The values below come from publication PMC6999906 (PLoS ONE, 2020).

Data set [1] concerns the target Mtb ThyX (thymidylate synthase ThyX) (Mycobacterium tuberculosis, UniProt P9WG57). Description: […]; also NADPH oxidase assay (IC50 about […]). The format is biochemical.
Data set [2] concerns NC(=O)C1=CN([C@@H]2O[C@H](COP(=O)(O)OP(=O)(O)OC[C@H]3O[C@@H](n4cnc5c(N)ncnc54)[C@H](OP(=O)(O)O)[C@@H]3O)[C@@H](O)[C@H]2O)C=CC1. In words: purified protein. The note with it: FAD.
Data set [3] deals with Nc1nc2c(c(=O)[nH]1)N1CN(c3ccc(C(=O)N[C@@H](CCC(=O)O)C(=O)O)cc3)C[C@H]1CN2. In words: purified protein. The conditions noted are these: FAD.
The subject of data set [4] is O=c1ccn([C@H]2C[C@H](O)[C@@H](COP(=O)(O)O)O2)c(=O)[nH]1. In words: purified protein. The conditions noted are these: FAD.

Chain of Mtb ThyX (thymidylate synthase ThyX) (P9WG57 whole entry): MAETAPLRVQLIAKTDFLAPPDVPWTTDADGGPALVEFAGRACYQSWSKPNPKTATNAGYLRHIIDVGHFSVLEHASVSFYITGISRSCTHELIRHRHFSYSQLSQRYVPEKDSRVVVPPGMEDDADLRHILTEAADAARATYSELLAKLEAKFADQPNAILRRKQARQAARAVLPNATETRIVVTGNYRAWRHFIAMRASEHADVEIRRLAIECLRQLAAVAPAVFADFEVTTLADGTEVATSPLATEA

Regarding `CC1=CC(=O)c2c(O)cccc2C1=O` [plumbagin, 5-hydroxy-2-methyl-1,4-naphthoquinone], the inhibition constant (Ki) (as a rule, the equilibrium dissociation constant of an inhibitor or competing ligand from its target) in data set [1] is 8.21 µM.
As for “Mtb ThyX (thymidylate synthase ThyX) (Mycobacterium tuberculosis H37Rv)”, the Km (usually the concentration of substrate that gives half-maximal velocity) stood at 35.22 µM in data set [2], 6.467 µM in data set [3] and 3.526 ± 0.68 µM in data set [4]. The Vmax (usually the top rate of the reaction or transport when substrate is in excess) was determined as 0.00323 µmol/min/mg in data set [2], 0.00228 µmol/min/mg in data set [3] and 0.00695 µmol/min/mg in data set [4].
